Publication PMC10500007
Residue numbers refer to the chain shown, from its start. In names and notes the source's numbering stands.

How the values were obtained:
[1] = target: T1, human integrin αvβ6 (soluble, construct not stated), P06756;P18564; assay: BLI; details: chain shown with the change;; parent: > 1000 nM
T1 chain 1: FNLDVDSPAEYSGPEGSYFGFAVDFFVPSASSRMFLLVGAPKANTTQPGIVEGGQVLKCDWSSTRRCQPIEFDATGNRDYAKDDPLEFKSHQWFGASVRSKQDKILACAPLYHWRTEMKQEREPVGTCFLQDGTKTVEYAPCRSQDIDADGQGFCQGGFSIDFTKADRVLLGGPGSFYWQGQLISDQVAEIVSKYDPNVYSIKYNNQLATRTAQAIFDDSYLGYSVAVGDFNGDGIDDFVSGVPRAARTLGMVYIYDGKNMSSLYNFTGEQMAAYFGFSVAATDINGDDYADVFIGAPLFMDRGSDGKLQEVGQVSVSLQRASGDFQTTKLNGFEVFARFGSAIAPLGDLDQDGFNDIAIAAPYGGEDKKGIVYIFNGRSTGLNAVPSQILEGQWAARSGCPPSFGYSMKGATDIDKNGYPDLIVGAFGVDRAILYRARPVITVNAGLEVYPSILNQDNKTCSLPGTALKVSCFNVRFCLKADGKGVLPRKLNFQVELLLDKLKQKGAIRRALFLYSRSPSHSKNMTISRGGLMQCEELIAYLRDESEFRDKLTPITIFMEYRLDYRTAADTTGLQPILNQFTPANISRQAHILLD
T1 chain 2: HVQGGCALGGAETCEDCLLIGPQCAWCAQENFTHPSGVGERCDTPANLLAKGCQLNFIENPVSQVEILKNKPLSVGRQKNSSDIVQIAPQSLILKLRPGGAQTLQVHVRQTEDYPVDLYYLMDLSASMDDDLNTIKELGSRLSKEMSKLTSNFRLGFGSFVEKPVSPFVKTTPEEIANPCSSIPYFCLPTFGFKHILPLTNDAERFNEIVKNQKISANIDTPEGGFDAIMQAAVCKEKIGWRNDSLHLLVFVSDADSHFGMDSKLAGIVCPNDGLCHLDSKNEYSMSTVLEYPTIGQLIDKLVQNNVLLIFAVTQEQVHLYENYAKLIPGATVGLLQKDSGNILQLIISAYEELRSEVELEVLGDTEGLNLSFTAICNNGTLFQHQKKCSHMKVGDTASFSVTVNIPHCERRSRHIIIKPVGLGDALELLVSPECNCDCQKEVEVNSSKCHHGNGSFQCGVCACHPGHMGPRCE

[2] = target: T2, human integrin αvβ8 (soluble, construct not stated), P06756;P26012; assay: BLI; details: chain shown with the change;; parent: 1.9 nM
T2 chain 1: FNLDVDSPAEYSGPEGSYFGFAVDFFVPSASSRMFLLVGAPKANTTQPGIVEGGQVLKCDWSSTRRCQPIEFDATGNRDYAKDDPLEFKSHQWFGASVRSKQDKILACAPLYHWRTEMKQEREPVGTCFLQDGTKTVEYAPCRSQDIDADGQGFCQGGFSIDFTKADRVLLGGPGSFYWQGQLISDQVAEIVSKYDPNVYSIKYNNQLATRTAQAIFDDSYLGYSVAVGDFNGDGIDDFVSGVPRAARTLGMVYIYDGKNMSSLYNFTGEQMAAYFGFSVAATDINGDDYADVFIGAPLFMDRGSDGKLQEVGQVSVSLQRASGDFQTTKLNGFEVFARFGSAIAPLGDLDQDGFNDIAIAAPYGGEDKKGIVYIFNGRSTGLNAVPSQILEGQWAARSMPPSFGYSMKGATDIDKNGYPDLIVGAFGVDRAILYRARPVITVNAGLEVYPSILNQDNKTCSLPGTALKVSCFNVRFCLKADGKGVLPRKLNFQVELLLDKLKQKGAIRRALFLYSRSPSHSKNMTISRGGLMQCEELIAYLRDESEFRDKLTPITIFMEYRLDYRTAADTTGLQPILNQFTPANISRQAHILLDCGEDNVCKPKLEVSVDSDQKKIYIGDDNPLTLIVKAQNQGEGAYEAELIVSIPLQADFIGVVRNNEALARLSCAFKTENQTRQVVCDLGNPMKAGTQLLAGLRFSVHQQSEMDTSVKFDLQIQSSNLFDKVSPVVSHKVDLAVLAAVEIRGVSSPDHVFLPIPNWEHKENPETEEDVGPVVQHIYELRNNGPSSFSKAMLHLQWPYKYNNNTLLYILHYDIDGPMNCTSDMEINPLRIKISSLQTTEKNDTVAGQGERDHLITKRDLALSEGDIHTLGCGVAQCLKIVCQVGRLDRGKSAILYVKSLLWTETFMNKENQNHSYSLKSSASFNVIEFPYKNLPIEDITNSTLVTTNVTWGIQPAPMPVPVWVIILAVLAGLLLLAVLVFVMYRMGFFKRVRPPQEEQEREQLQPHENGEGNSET
T2 chain 2: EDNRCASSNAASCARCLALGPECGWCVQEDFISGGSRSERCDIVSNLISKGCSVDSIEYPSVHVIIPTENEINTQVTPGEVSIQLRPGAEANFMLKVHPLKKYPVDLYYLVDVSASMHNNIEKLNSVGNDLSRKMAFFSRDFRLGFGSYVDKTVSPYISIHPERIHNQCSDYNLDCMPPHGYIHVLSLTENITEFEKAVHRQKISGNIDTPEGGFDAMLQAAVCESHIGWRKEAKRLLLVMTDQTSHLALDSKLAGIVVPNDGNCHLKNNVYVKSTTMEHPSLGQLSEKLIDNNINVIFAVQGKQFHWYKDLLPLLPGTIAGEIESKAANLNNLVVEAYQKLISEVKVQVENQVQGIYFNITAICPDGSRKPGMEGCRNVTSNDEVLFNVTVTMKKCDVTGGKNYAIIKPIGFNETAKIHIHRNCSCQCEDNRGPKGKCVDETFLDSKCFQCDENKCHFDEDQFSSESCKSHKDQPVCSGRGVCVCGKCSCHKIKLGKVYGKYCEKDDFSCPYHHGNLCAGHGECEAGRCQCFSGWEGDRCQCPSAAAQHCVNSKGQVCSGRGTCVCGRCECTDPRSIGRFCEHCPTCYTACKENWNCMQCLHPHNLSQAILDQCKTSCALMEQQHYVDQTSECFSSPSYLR

B1: B8_BP_dslf M13L; Y16I (protein)
chain: TKCVVRFNFRGDLAVIALKAVKDHLKKEGPHWNITTHNDDEVYLVVRGIHESDAKRIAKWVESTIPGISVETQCD
[1]
  Kd: 0.7 nM
[2]
  Kd: 0.3 nM

B2: B8_BP_dslf V15T; Y16I (protein)
chain: B1 chain with L13M, V15T
[2]
  Kd: 0.1 nM

B3: B8_BP_dslf Y16I (protein)
chain: B1 chain with L13M
[2]
  Kd: 0.2 nM

B4: B8_BP_dslf M13L; V15T; Y16I (protein)
chain: B1 chain with V15T
[2]
  Kd: 0.3 nM
